Here are results for 27 molecules from patent publication US20180155451A1 (published 2018).

Assay [1] addresses T1, FcγRIa extracellular domain with C-terminal His tag (human, UniProt P12314 16-292).
T1 construct: extracellular domain; also called FcgRI; CD64; not shown: His tag at the C terminus
Description: SPR Biacore, relative FcγRIa binding vs GpH7-B3/GpL16-k0.
T1 sequence (P12314 16-292): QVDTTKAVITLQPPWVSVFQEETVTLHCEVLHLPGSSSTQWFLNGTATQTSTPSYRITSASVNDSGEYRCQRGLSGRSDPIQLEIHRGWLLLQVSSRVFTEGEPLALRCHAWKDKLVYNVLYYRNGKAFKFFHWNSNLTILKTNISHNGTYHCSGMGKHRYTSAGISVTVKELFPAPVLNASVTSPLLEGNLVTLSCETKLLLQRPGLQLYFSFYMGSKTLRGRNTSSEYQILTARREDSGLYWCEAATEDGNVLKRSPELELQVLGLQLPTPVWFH

The target in assay [2] is T2, FcγRIa extracellular domain with C-terminal His tag (human, UniProt P12314 16-292).
T2 construct: extracellular domain; Expressed in FreeStyle293 cells; analyte in Biacore; also called FcgRI; FcgRIa
Description: SPR Biacore, antibody captured, FcγRIa analyte; vs GpH7-A5/GpH7-B3/GpL16-k0 = 100.
T2 sequence (P12314 16-292): as above

B1: GpH7-B3 variant S298_11K/GpL16-k0 (antibody, human IgG1, kappa)
heavy: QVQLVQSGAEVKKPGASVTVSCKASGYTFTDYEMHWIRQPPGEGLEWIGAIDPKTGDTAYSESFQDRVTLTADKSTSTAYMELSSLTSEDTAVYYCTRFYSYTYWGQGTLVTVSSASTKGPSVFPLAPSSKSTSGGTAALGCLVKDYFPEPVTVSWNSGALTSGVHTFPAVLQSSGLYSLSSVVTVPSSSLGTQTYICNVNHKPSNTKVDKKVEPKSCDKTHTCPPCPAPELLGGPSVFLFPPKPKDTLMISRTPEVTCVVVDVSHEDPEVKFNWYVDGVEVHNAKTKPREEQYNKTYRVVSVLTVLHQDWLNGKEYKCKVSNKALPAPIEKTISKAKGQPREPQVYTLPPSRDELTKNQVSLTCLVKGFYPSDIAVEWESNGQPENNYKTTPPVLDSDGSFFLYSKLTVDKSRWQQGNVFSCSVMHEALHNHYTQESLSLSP
light: DIVMTQSPLSLPVTPGEPASISCQASESLVHSNRNTYLHWYLQKPGQSPQLLIYKVSNRFSGVPDRFSGSGSGTDFTLKISRVEAEDVGVYYCSQNTHVPPTFGQGTKVEIERTVAAPSVFIFPPSDEQLKSGTASVVCLLNNFYPREAKVQWKVDNALQSGNSQESVTEQDSKDSTYSLSSTLTLSKADYEKHKVYACEVTHQGLSSPVTKSFNRGEC
notes: mutation in both H chains; also called Ho Ab S298_11K; S298K
Turning to B1, in assay [1], the Ho/Con_1a was 90.4 % of HoCon Ab (=100).

B2: GpH7-A5/GpH7-B3 variant S324_03V/GpL16-k0 (He Ab) (antibody, human IgG1, kappa)
heavy 1: not shown
heavy 2: not shown
light: B1 light
notes: He Ab: alteration only in the GpH7-B3 chain
On to B2, for which, in assay [2], the He/Con_1a was 104 relative (control = 100).

B3: GpH7-A5/GpH7-B3 variant Q295_05P/GpL16-k0 (He Ab) (antibody, human IgG1, kappa)
heavy 1: not shown
heavy 2: not shown
light: B1 light
notes: as for B2
Turning to B3, in assay [2], the He/Con_1a is 103 relative (control = 100).

B4: GpH7-A5/GpH7-B3 variant S298_19Q/GpL16-k0 (He Ab) (antibody, human IgG1, kappa)
heavy 1: not shown
heavy 2: not shown
light: B1 light
notes: as for B2
Regarding B4, the He/Con_1a in assay [2] was 109 relative (control = 100).

B5: GpH7-A5/GpH7-B3 variant Q295_13S/GpL16-k0 (He Ab) (antibody, human IgG1, kappa)
heavy 1: not shown
heavy 2: not shown
light: B1 light
notes: as for B2
Consider B5, for which the He/Con_1a in assay [2] was 102 relative (control = 100).

B6: GpH7-A5/GpH7-B3 variant S337_02A/GpL16-k0 (He Ab) (antibody, human IgG1, kappa)
heavy 1: not shown
heavy 2: not shown
light: B1 light
notes: as for B2
In the case of B6, the He/Con_1a in assay [2] is 106 relative (control = 100).

B7: GpH7-B3 variant S298_02A/GpL16-k0 (antibody, human IgG1, kappa)
heavy: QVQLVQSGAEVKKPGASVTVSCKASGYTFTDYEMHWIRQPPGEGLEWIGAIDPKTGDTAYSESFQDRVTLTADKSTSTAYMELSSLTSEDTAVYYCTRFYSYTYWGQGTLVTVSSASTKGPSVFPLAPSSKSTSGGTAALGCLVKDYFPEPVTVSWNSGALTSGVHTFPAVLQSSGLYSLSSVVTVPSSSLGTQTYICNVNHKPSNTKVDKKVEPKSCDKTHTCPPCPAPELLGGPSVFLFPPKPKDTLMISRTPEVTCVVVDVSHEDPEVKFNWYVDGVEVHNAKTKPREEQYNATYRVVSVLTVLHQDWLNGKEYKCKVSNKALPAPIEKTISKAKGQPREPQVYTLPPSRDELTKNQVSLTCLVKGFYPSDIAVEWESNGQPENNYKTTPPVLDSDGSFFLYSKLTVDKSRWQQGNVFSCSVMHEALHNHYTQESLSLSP
light: B1 light
notes: mutation in both H chains; also called Ho Ab S298_02A; S298A
On to B7, for which the Ho/Con_1a in assay [1] was 106 % of HoCon Ab (=100).

B8: GpH7-B3 variant S239_18N/GpL16-k0 (antibody, human IgG1, kappa)
heavy: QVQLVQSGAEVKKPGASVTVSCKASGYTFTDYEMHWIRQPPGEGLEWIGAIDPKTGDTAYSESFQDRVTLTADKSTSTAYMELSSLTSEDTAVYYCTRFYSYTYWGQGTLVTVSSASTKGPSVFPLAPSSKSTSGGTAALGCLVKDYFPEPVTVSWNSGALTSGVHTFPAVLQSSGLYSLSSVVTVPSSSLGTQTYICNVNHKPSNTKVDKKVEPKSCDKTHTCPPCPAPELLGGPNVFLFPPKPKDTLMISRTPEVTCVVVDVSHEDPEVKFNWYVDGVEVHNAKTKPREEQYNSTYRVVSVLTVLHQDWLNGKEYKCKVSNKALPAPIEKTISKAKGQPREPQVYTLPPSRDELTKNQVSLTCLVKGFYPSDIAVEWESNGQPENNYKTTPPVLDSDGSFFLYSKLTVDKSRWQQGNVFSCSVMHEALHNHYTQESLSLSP
light: B1 light
notes: mutation in both H chains; also called Ho Ab S239_18N; S239N
In the case of B8, in assay [1], the Ho/Con_1a was 97.9 % of HoCon Ab (=100).

B9: GpH7-A5/GpH7-B3 variant S298_07I/GpL16-k0 (He Ab) (antibody, human IgG1, kappa)
heavy 1: not shown
heavy 2: not shown
light: B1 light
notes: as for B2
Turning to B9, the He/Con_1a in assay [2] was 107 relative (control = 100).

B10: GpH7-A5/GpH7-B3 variant Q295_14T/GpL16-k0 (He Ab) (antibody, human IgG1, kappa)
heavy 1: not shown
heavy 2: not shown
light: B1 light
notes: as for B2
Turning to B10, the He/Con_1a in assay [2] is 103 relative (control = 100).

B11: GpH7-A5/GpH7-B3 variant S298_08L/GpL16-k0 (He Ab) (antibody, human IgG1, kappa)
heavy 1: not shown
heavy 2: not shown
light: B1 light
notes: as for B2
As for B11, in assay [2], the He/Con_1a is 107 relative (control = 100).

B12: GpH7-A5/GpH7-B3 variant S298_14T/GpL16-k0 (He Ab) (antibody, human IgG1, kappa)
heavy 1: not shown
heavy 2: not shown
light: B1 light
notes: as for B2
Take B12: the He/Con_1a in assay [2] is 107 relative (control = 100).

B13: GpH7-A5/GpH7-B3 variant S337_03V/GpL16-k0 (He Ab) (antibody, human IgG1, kappa)
heavy 1: not shown
heavy 2: not shown
light: B1 light
notes: as for B2
B13: the He/Con_1a in assay [2] was 107 relative (control = 100).

B14: GpH7-B3 variant S298_14T/GpL16-k0 (antibody, human IgG1, kappa)
heavy: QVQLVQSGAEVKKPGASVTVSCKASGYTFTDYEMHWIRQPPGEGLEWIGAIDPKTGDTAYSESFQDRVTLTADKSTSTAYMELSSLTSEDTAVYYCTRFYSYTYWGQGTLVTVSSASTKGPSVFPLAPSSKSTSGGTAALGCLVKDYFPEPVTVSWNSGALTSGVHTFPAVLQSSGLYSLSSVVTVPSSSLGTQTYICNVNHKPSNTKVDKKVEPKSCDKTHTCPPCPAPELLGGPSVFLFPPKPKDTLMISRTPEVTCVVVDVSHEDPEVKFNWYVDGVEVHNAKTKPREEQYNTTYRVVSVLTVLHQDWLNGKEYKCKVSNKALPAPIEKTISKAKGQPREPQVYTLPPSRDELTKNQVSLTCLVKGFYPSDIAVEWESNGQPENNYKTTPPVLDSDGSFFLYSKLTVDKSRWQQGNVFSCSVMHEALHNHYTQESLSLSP
light: B1 light
notes: mutation in both H chains; also called Ho Ab S298_14T; S298T
Regarding B14, the Ho/Con_1a in assay [1] is 106 % of HoCon Ab (=100).

B15: GpH7-A5/GpH7-B3 variant S324_14T/GpL16-k0 (He Ab) (antibody, human IgG1, kappa)
heavy 1: not shown
heavy 2: not shown
light: B1 light
notes: as for B2
As to B15, the He/Con_1a in assay [2] is 121 relative (control = 100).

B16: GpH7-B3 variant S298_08L/GpL16-k0 (antibody, human IgG1, kappa)
heavy: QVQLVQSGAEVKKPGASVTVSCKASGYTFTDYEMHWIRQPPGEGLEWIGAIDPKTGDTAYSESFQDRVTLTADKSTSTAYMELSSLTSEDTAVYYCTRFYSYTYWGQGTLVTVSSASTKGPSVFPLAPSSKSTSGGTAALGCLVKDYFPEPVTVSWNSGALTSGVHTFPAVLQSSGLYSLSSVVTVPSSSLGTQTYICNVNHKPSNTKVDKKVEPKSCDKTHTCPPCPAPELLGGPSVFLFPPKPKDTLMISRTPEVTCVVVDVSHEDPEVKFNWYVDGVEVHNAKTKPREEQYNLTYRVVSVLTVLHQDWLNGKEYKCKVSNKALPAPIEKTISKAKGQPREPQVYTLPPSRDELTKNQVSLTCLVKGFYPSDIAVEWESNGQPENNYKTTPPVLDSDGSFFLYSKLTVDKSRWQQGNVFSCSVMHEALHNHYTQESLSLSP
light: B1 light
notes: mutation in both H chains; also called Ho Ab S298_08L; S298L
Regarding B16, in assay [1], the Ho/Con_1a was 104 % of HoCon Ab (=100).

B17: GpH7-A5/GpH7-B3 variant S324_20W/GpL16-k0 (He Ab) (antibody, human IgG1, kappa)
heavy 1: not shown
heavy 2: not shown
light: B1 light
notes: as for B2
As for B17, in assay [2], the He/Con_1a was 114 relative (control = 100).

B18: GpH7-B3 variant S239_14T/GpL16-k0 (antibody, human IgG1, kappa)
heavy: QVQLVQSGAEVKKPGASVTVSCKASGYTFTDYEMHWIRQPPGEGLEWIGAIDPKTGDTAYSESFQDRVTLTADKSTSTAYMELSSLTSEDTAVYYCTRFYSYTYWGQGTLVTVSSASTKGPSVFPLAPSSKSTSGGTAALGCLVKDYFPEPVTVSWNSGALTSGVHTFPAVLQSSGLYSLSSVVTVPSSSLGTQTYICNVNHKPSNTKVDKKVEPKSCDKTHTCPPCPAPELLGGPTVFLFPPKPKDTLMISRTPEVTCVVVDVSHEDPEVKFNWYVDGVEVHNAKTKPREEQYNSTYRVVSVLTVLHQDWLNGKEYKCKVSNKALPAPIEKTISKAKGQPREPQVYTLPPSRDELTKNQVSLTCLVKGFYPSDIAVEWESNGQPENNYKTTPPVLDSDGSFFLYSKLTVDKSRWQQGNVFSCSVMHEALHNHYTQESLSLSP
light: B1 light
notes: mutation in both H chains; also called Ho Ab S239_14T; S239T
On to B18, for which, in assay [1], the Ho/Con_1a was 101 % of HoCon Ab (=100).

B19: GpH7-B3 variant S267_01G/GpL16-k0 (antibody, human IgG1, kappa)
heavy: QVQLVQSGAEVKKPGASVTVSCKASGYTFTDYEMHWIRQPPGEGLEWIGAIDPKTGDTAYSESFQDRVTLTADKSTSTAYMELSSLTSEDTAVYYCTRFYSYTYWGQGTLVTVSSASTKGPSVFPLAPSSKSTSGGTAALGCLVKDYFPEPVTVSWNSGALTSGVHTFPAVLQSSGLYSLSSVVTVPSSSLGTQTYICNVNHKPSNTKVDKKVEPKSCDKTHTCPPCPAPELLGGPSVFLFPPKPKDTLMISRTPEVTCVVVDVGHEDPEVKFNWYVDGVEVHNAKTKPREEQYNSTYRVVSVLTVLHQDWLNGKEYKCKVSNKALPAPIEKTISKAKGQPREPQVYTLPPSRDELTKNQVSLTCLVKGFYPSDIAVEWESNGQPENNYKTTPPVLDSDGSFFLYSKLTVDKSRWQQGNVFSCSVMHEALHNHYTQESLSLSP
light: B1 light
notes: mutation in both H chains; also called Ho Ab S267_01G; S267G
With B19, the Ho/Con_1a in assay [1] is 102 % of HoCon Ab (=100).

B20: GpH7-A5/GpH7-B3 variant S298_15Y/GpL16-k0 (He Ab) (antibody, human IgG1, kappa)
heavy 1: not shown
heavy 2: not shown
light: B1 light
notes: as for B2
Take B20: the He/Con_1a in assay [2] is 107 relative (control = 100).

B21: GpH7-B3 variant S298_16H/GpL16-k0 (antibody, human IgG1, kappa)
heavy: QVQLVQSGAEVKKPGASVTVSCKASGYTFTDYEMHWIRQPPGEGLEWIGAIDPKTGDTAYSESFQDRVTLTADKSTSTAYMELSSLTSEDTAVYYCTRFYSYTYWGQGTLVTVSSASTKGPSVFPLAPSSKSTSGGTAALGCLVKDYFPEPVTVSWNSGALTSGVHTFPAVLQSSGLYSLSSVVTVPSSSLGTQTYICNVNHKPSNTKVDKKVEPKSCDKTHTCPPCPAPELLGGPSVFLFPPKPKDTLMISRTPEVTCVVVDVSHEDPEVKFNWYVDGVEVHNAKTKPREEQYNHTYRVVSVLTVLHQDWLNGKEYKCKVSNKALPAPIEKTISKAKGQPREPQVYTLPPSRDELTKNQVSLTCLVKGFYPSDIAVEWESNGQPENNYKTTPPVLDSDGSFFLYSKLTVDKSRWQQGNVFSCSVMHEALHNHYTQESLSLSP
light: B1 light
notes: mutation in both H chains; also called Ho Ab S298_16H; S298H
For B21, the Ho/Con_1a in assay [1] was 107 % of HoCon Ab (=100).

B22: GpH7-A5/GpH7-B3 variant S239_01G/GpL16-k0 (He Ab) (antibody, human IgG1, kappa)
heavy 1: not shown
heavy 2: not shown
light: B1 light
notes: as for B2
As for B22, in assay [2], the He/Con_1a was 101 relative (control = 100).

B23: GpH7-B3 variant S298_01G/GpL16-k0 (antibody, human IgG1, kappa)
heavy: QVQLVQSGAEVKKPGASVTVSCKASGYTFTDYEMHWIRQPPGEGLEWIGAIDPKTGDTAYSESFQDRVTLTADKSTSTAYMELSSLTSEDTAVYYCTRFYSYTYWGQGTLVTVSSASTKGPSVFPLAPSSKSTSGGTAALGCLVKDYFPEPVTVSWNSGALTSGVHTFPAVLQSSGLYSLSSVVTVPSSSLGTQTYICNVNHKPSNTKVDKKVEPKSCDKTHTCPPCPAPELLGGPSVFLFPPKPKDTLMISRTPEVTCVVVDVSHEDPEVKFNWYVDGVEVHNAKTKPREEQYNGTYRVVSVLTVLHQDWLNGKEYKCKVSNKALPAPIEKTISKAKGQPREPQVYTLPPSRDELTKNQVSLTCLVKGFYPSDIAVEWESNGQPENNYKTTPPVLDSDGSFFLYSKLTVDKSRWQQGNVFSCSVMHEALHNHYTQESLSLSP
light: B1 light
notes: mutation in both H chains; also called Ho Ab S298_01G; S298G
B23: the Ho/Con_1a in assay [1] was 103 % of HoCon Ab (=100).

B24: GpH7-B3 variant S239_19Q/GpL16-k0 (antibody, human IgG1, kappa)
heavy: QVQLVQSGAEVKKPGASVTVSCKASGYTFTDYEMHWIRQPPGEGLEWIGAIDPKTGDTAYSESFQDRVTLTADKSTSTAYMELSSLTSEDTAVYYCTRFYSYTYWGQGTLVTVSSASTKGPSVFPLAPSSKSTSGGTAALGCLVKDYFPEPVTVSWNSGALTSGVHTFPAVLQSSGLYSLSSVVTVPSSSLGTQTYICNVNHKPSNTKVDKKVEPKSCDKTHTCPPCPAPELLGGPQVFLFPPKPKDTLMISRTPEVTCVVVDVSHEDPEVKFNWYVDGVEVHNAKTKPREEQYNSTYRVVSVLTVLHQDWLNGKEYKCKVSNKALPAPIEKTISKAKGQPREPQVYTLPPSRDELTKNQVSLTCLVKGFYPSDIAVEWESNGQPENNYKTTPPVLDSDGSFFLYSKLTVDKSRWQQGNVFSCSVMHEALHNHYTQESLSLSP
light: B1 light
notes: mutation in both H chains; also called Ho Ab S239_19Q; S239Q
Consider B24, for which, in assay [1], the Ho/Con_1a was 93.4 % of HoCon Ab (=100).

B25: GpH7-A5/GpH7-B3 variant S324_08L/GpL16-k0 (He Ab) (antibody, human IgG1, kappa)
heavy 1: not shown
heavy 2: not shown
light: B1 light
notes: as for B2
Turning to B25, the He/Con_1a in assay [2] was 103 relative (control = 100).

B26: GpH7-A5/GpH7-B3 variant S267_09D/GpL16-k0 (He Ab) (antibody, human IgG1, kappa)
heavy 1: not shown
heavy 2: not shown
light: B1 light
notes: as for B2
For the molecule B26, in assay [2], the He/Con_1a was 110 relative (control = 100).

B27: GpH7-B3 variant S239_09D/GpL16-k0 (antibody, human IgG1, kappa)
heavy: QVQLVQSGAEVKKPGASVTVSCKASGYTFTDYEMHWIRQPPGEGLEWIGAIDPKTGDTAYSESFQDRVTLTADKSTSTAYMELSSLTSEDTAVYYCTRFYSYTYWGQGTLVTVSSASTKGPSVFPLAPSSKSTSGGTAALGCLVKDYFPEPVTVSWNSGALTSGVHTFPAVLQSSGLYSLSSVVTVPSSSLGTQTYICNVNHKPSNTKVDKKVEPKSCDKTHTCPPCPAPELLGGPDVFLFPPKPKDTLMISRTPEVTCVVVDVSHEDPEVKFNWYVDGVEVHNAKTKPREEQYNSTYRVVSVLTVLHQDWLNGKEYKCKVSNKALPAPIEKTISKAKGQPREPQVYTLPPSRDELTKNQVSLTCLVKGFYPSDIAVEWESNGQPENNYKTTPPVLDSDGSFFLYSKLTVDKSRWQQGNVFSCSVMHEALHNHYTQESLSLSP
light: B1 light
notes: mutation in both H chains; also called Ho Ab S239_09D; S239D
For B27, the Ho/Con_1a in assay [1] was 101 % of HoCon Ab (=100).
